4 molecules from publication PMC3830487, “A DELLA gene, RhGAI1, is a direct target of EIN3 and mediates ethylene-regulated rose petal cell expansion via repressing the expression of RhCesA2” can be followed below.

Data set [1] addresses T1, RhGAI1 (C-terminal fragment with binding domain) (rose, UniProt M9XGL2 238-618).
T1 sequence: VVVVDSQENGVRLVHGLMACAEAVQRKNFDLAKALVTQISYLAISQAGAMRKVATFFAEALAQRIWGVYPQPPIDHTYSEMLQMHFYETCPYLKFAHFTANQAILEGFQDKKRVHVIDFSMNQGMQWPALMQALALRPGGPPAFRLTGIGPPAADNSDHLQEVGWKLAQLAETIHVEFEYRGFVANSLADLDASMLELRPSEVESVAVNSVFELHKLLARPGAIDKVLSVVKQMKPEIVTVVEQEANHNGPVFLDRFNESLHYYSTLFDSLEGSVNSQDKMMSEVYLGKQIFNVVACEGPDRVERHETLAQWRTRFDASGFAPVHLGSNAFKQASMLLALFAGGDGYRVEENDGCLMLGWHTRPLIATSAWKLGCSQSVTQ
Nature of the data set: EMSA; competed by unlabelled probe; EMSA per Wang et al. 2011, LightShift chemiluminescent kit (Pierce); 1 ug recombinant protein, 2 nM biotin-labelled probe; buffer, salt, pH and temperature not. Particulars: tags: GST (pGEX-2T), label: biotin, blunt. (In general: A gel shift assay detects complexes by their altered migration in electrophoresis.)

For data set [2], the target named is T2, RhEIN3-3 (N-terminal fragment with DNA-binding domain) (rose, UniProt M9XFM8 141-356).
T2 sequence: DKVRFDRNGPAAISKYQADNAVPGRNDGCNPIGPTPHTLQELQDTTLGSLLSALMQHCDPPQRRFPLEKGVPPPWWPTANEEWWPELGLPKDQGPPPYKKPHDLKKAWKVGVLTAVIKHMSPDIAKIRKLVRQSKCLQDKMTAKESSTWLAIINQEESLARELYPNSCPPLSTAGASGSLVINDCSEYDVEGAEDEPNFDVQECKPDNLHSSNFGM
Nature of the data set: competition; mutated competitor vs biotin-labelled N1; EMSA per Wang et al. 2011, LightShift chemiluminescent kit (Pierce); 1 ug recombinant protein, 2 nM biotin-labelled probe; buffer, salt, pH and temperature not. Particulars: tags: GST (pGEX-2T), chain copies: 2.

Data set [3] has as its target T1, RhGAI1 (C-terminal fragment with …). Kind of data set: competition; mutated competitor vs biotin-labelled N3; EMSA per Wang et al. 2011, LightShift chemiluminescent kit (Pierce); 1 ug recombinant protein, 2 nM biotin-labelled probe; buffer, salt, pH and temperature not. Particulars: tags: GST (pGEX-2T).
Data set [4] addresses T2, RhEIN3-3 (N-terminal fragment with …). Nature of the data set: EMSA; competed by unlabelled probe; EMSA per Wang et al. 2011, LightShift chemiluminescent kit (Pierce); 1 ug recombinant protein, 2 nM biotin-labelled probe; buffer, salt, pH and temperature not. Particulars: tags: GST (pGEX-2T), chain copies: 2, label: biotin, blunt.

B1: proRhCesA2 probe (dsDNA)
DNA 1: GCAGAGGGCTAATTTAGTCGGTGGAGAT
DNA 2: ATCTCCACCGACTAAATTAGCCCTCTGC
Turning to B1, the binding result in data set [1] is “binds”.

B2: proRhGAI1 mutated probe (dsDNA)
DNA 1: CAGTCACGTTTTATACTCAGTAAGAGGTATTAAAATTCTAGAG
DNA 2: CTCTAGAATTTTAATACCTCTTACTGAGTATAAAACGTGACTG
Regarding B2, the binding result in data set [2] is listed as “no binding”.

B3: proRhCesA2 mutated probe (dsDNA)
DNA 1: GCAGAGGGCTGACTCAGTCGGTGGAGATTT
DNA 2: AAATCTCCACCGACTGAGTCAGCCCTCTGC
As to B3, in data set [3], the binding result is listed as “no binding”.

B4: proRhGAI1 probe (dsDNA)
DNA 1: CGTTTTATACTAATTCAAAGGTATTAA
DNA 2: TTAATACCTTTGAATTAGTATAAAACG
Regarding B4, in data set [4], the binding result was “binds”.
